Experimental data: the supplement of paper PMC9170038

test system: MS2 coat protein; test: apparent KD of MS2 coat protein, switch OFF state (with FMN for OFF switches, without FMN for ON switches); designed switch direction (-1 OFF switch, 1 ON switch): 1; higher = weaker reporter binding; details: FMN input: 0 or 200 uM; Eterna round: R93 (includes R88 designs)
In short: (§1)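 The designed RNA switches were transcribed on-chip from Illumina sequencing clusters. In 100 mM Tris-HCl pH 7.5, 80 mM KCl and 4 mM MgCl2, without or with constant ligand, they were titrated with SNAP-549-labelled MS2 coat protein from 0.7 or 1.5 nM to 3 µM in twofold steps. Apparent KD is the per-design median of normalised cluster binding-curve fits.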

For “AAGAAACAUGAGGAUCACCCAUGUAAAUUUAAGAGAGGAUAUCGUACAUGGAAGAUUUAACGAGAAGGCUCUAGAA [Pariah 2 (MS2 Riboswitches - Same State 1)]”, the “apparent KD of MS2 coat protein” value was 36.9 nM.

test system: MS2 coat protein; test: apparent KD of MS2 coat protein, switch ON state; designed switch direction (-1 OFF switch, 1 ON switch): -1; higher = weaker reporter binding; details: FMN input: 0 or 200 uM; Eterna round: R93 (includes R88 designs)
In short: as §1

First: AAUGGUGCAGGAUAUACAUGAGGAUCACCCAUGUACAUCAGACAUAUGGUCGAAGCAUGUAGAAGGGCACCAAA [Ex 3May 56]
Second: AGCUAGUCAGGAUAUGCGAAUAUGUCAAAAGACGUGAAGGGACAUGAGGAUCACCCAUGUAGAAGGGACUAGCA [Diamond 3]
The “apparent KD of MS2 coat protein” value of the first is 4.5-fold higher: 145 nM for the first, 32.4 nM for the second.

“UAAAGACAUGAGGAUCACCCAUGUGAGGAUAUCGGUGACUAUAAAAAAAAAUAGUCACCGAGAAGGCACAGAAA [JR_Exc001_Sub301]” and “AAUAAGUGAGGAUAUGGAAAUAGUAGAUAAGAUUCCCUAAACCAGAAGGCACAUGAGGAUCACCCAUGUAAAUA [JR_Exc004_Sub005]” are within 1.5-fold of each other in “apparent KD of MS2 coat protein” value: 43.2 nM for the first, 38.7 nM for the second.

“GAAAAGGCAGGAUAUGCAGGAUAUAGAAGGAGGAUAUAGAGACAUGAGGAUCACCCAUGUAGAAGGGCCAAAAG [salish99-ex2-11]” and “AAAAAACAUGAGGAUCACCCAUGUCAGGAUAUCUGUAUUCAAUCCUCGGAUUGAAUACAGAGAAGGGACAUAAA [Ex1: 605]” are within 1.5-fold of each other in “apparent KD of MS2 coat protein” value: 42.6 nM for the first, 46.2 nM for the second.

“AAAAAGGGAGGAUAUACGAAAUAGGGAAACCUAAAAAAGGGACAUGAGGAUCACCCAUGUAGAAGGCCCAAGAA [Clint Eastwood 64% 6]” and “AACAUGUCAGGAUAUGUAGUAAAAAGUGAUCCUCAUAAACUACAGAAGGGACAUGAGGAUCACCCAUGUAAAAA [Ex4: 930]” are within 1.5-fold of each other in “apparent KD of MS2 coat protein” value: 39 nM for the first, 27.9 nM for the second.

“AAAAAGUCAGGAUAUGCGAAGGCGUCUGAUAGACGAGGCUAGCAGAAGGGACAUGAGGAUCACCCAUGUAAAAA [Mat - Mod of Nando]” and “AAGAACGGAGGAUAUACAAAAUAAAAGAAAAGAAAGAAAGAACAUGAGGAUCACCCAUGUAGAAGGCUGAAGAA [Merneferre Ay I]” are within 1.5-fold of each other in “apparent KD of MS2 coat protein” value: 50.5 nM for the first, 35.7 nM for the second.

“AAAAGGUCAGGAUAUGCCCACCUGGUGGAAAAACCAGGUGGGCAGAAGGGACAUGAGGAUCACCCAUGUAAAAA [Excls4-Ii]” and “AAGCUGGUAGGAUAUACUAGGGCAACUAAUGCACCGAUAGGACAUGAGGAUCACCCAUGUAGAAGGGCCAGAAA [JR_Exc002_Sub404]” are within 1.5-fold of each other in “apparent KD of MS2 coat protein” value: 53.1 nM for the first, 65.5 nM for the second.

“AAAAAGAGAGGAUAUACAUGAGGAUCACCCAUGUGAAAAAAAAAAAAAGGGAAAAGAUGUAGAAGGCUCAAAAA [65%, Moding Exclusion3-cac2, 16]” and “AGUUAGCGAGGAUAUACAUGAGGAUCACCCAUGUGAGAGAAAAAAGUGAGAAAGAAAAGUAGAAGGCGCUAACA [Moding Norbert Elias (73)]” are within 1.5-fold of each other in “apparent KD of MS2 coat protein” value: 30.4 nM for the first, 42.3 nM for the second.

Going from “AAAGGACAUGAGGAUCACCCAUGUGAGGAUAUGCUCUACGAACGAAUACACAUGAGAAGCAGAAGGCACAUAAG [try 1]” to “AAGGGACAUGAGGAUCACCCAUGUCAGGAUAUGCAAACAACAAACAACAAACAACAAAGCAGAAGGGACAAAAA [63%, Olong, 5]”, the “apparent KD of MS2 coat protein” value falls from 43.8 nM to 29.1 nM (1.5-fold).

Compared with “AACUAGUCAGGAUAUACGAACAUGUCAAAAAACAUAAAGGGACAUGAGGAUCACCCAUGUAGAAGGGACUAGCA [74%, Web mod - With 4 less G's]”, “CAAAAACAUGAGGAUCACCCAUGUGAGGAUAUACGAAAGUAGAAGGCACUAAAACAAAACAGAAGGACAAAACA [Meechl Ex1 R2 m3]” is 9-fold lower in “apparent KD of MS2 coat protein” value: 161 nM for the first, 17.9 nM for the second.

Going from “AGCUUCAGAGGAUAUACUUGAGUGAUAAAAGUCUGAUAACUACAUGAGGAUCACCCAUGUAGAAGGCUGUAGCA [Ex2 Design 168: Sub-opt 32]” to “AAUAAGUGAGGAUAUGUGAAUAGAAGAUAAGAUACCCAAAAACAGAAGGCACAUGAGGAUCACCCAUGUAAAUA [JR_Exc004_Sub009]”, the “apparent KD of MS2 coat protein” value rises from 19.1 nM to 33.7 nM (1.8-fold).

Compared with “CAUAAACAUGAGGAUCACCCAUGUGAGGAUAUGAUAUUACUAGGACGGCUGUAAUCAAUCAGAAGGCACAUCAA [JR_Exc--1_Sub1206]”, “AAAAAGCGAGGAUAUGCAAGAAAAAAAAAAAAAAAAAAGGGACAUGAGGAUCACCCAUGUAGAAGGCGCAAAAA [Diamond 65]” is 2.4-fold higher in “apparent KD of MS2 coat protein” value: 22.5 nM for the first, 54.9 nM for the second.

First: AGUUGGCGAGGAUAUACAUGAGGAUCACCCAUGUGAGAGAAAAAAGUGAGAAAGAAAAGUAGAAGGCGCUCACA [JL Lego Mod 12]
Second: AAGAACGUAGGAUAUACAUGAGGAUCACCCAUGUAAAAGAAAGAAAGGGAAAAGAAAAGUAGAAGGACGAAGAA [Hedjkheperre-setepenre Shoshenq I]
The “apparent KD of MS2 coat protein” value of the first is 2.1-fold higher: 62.1 nM for the first, 29.7 nM for the second.

“AAAAAACAUGAGGAUCACCCAUGUCAGGAUAUCUGUAUUCAAUCCUCGGAUUGAAUACAGAGAAGGGACAUGGG [Ex1: 601]” and “AGAAAACAUGAGGAUCACCCAUGUCAGGAUAUCUAAAAGAAAAGAAAAGAAAGAAGAAGGAGAAGGGACAAGAA [Djoser]” are within 1.5-fold of each other in “apparent KD of MS2 coat protein” value: 22.6 nM for the first, 21.2 nM for the second.

Compared with “AAAAAACAUGAGGAUCACCCAUGUGAGGAUAUGAAAAUACUAAGACAACUGUAAUCAAUCAGAAGGCACAACAA [JR_Exc--1_Sub1208]”, “GCUGUGGAAGGAUAUACAUGAGGAUCACCCAUGUGAGAGAAAAAAGUGAGAAAGAAAAGUAGAAGGUCCGUAGG [salish99-ex3-98]” is 2.1-fold higher in “apparent KD of MS2 coat protein” value: 18.8 nM for the first, 40.3 nM for the second.

Compared with “GAAAAGUCAGGAUAUGUACAAAAUAAAAUAAAAAUAAAAGUACAGAAGGGACAUGAGGAUCACCCAUGUAAAAA [Mat - Exclusion 4 - Mayanna - D119]”, “ACCAGACAUGAGGAUCACCCAUGUCAGGAUAUGCAUCUUAGGAAAAAAAAACUAAGAUGCAGAAGGGACAAGGG [Design 5: Super Stable - A-U mutation]” is 3-fold lower in “apparent KD of MS2 coat protein” value: 47.3 nM for the first, 16 nM for the second.

“AAGAACUGAGGAUAUACAAAAUAAAAGAAAAGAAAGAAAGAACAUGAGGAUCACCCAUGUAGAAGGCAGAAGAA [Sekhemre Khutawy Sobekhotep I]” and “AAAAAACAUGAGGAUCACCCAUGUCAGGAUAUGCUCAACAAUAUUCCAAAAAAGAACGGUAGAAGGGACAGGAA [Bilbo Confounded 25 - Jieux - Exclusion 1]” are within 1.5-fold of each other in “apparent KD of MS2 coat protein” value: 27.6 nM for the first, 30.4 nM for the second.

“AAAAAACAUGAGGAUCACCCAUGUCAGGAUAUCCGGUUCUUAAAAAAAAAGAGGCGUUGGAGAAGGGACAUUCC [Chica Displaced 12 - Jieux - Exclusion 1]” and “AAAAAGUGAGGAUAUUCGGAAGGGAAAGCGCAAACCCAACCGAAGAAGGCACAUGAGGAUCACCCAUGUGGAAG [Mat - Exaclusion 4 - Eli mod - D57]” are within 1.5-fold of each other in “apparent KD of MS2 coat protein” value: 26.7 nM for the first, 29.5 nM for the second.

Compared with “CUCAAGUGAGGAUAUCAGUAGUAAAAAAAUAAAAUUACUACUGAGAAGGCACAUGAGGAUCACCCAUGUGCAAA [EX4 336: Super Stable 36]”, “AACAGUACAGGAUAUACAUGAGGAUCACCCAUGUGGGAGAAAAGAUCGAGAGAUCAAUGUAGAAGGGUACUGGA [JL In the Red 07]” is 5.9-fold higher in “apparent KD of MS2 coat protein” value: 19.6 nM for the first, 115 nM for the second.

First: AAGAAGUGAGGAUAUCGAAGACAGACGAAAAGUCUGUCAAACGAGAAGGCACAUGAGGAUCACCCAUGUGGAAA [What have we learned so far? 64% 4]
Second: AAAAAACAUGAGGAUCACCCAUGUAAGGAUAUGCUGAAAAACACGGAAAAAACGUGCAGCAGAAGGUACAAAGA [Mat - Exclusion 1 - Eli mod - D96]
The “apparent KD of MS2 coat protein” value of the first is 1.7-fold higher: 30.5 nM for the first, 18.3 nM for the second.

Going from “AAGGAUCGAGGAUAUACAUAGAUACAGAUACAUGUAGAACUACAUGAGGAUCACCCAUGUAGAAGGCGAUCAUA [AJ 30]” to “ACAUCUAGAGGAUAUACAUGGAAAAAAAAAAAAAAAAAACUACAUGAGGAUCACCCAUGUAGAAGGCUAGAUGA [Ex2 Design 192: Random 12]”, the “apparent KD of MS2 coat protein” value rises from 23.9 nM to 40.4 nM (1.7-fold).

test system: MS2 coat protein; test: apparent KD of MS2 coat protein, switch ON state; designed switch direction (-1 OFF switch, 1 ON switch): 1; higher = weaker reporter binding; details: FMN input: 0 or 200 uM; Eterna round: R93 (includes R88 designs)
In short: as §1

Compared with “GAAAAACAUGAGGAUCACCCAUGUAGAGAUAUGGGAGGAUAUACGAAGACGAAAGACGAUGUAGAAGGCCUAAAAG [Garnet 59]”, “AAACAGAUAGGACAGGAUAUGUCGUGAUAAACAUGAGGAUCACCCAUGUGAGACAUCACGUAAUCGCAGAAGGGUCCCGUCUUAC [Usonsoave]” is 7.2-fold lower in “apparent KD of MS2 coat protein” value: 80.4 nM for the first, 11.1 nM for the second.
